Data published in patent US20260022176A1 (PARAGON THERAPEUTICS, published 2026).
“And” between values parts separate entries of the source, which are not always exact repeats. Equal entries are not always repeated. Each block holds one binder with its values, some of them ahead of it.

Key:
[1] = biological target: T1, Cyno- α4β7 (Cyno); assay: SPR with multiple cycle kinetics
T1 construct: SPR antigen; construct not described; also called cynomolgus α4β7 integrin

[2] = biological target: T2, Dog- α4β7 (Dog, UniProt A0A8I3PRY8 36-976; A0A8I3P7W0 20-723); assay: SPR with multiple cycle kinetics
T2 construct: SPR antigen; construct not described; also called dog α4β7 integrin; copies: 1 + 1

[3] = biological target: T3, Rabbit- α4β7 (Rabbit, UniProt G1TY34 34-977; G1SFE7 20-723); assay: SPR with multiple cycle kinetics
T3 construct: SPR antigen; construct not described; also called rabbit α4β7 integrin; copies: 1 + 1

[4] = biological target: T4, rat α4β7 integrin on rat PBMCs (rat, UniProt D3ZMQ3 38-1036; G3V7M2 20-791); assay: flow cytometry on cryopreserved rat PBMCs
T4 construct: whole, on cells; That the target on them is α4β7 is inferred from the purpose of the study; also called cells isolated from rats

[5] = biological target: T5, mouse α4β7 integrin on mouse PBMCs (mouse, UniProt Q00651 41-1039; P26011 20-806); assay: flow cytometry on cryopreserved mouse PBMCs
T5 construct: whole, on cells; That the target on them is α4β7 is inferred from the purpose of the study; also called cells isolated from mice

[6] = biological target: T6, monkey α4β7 integrin on monkey PBMCs (monkey); assay: receptor occupancy: competition with fluorescently labeled antibody, flow cytometry; all cell types, monkey PBMCs; mean, n = 7
T6 construct: whole, on cells; Receptor occupancy on CD4+, CD20+ and CD45RO+ cells from monkey donors
Procedure: (§1) The IC₅₀ values for competitive inhibition were determined by titrating unlabeled Ab001 into samples equilibrated with EC₅₀ concentrations of fluorescently labeled Ab001. Ab001 and Comparator Antibody Receptor Occupancy (IC₅₀) on CD4+, CD20+, and CD45RO+Cells from Human and Monkey Donors are shown in Table 2B.

[7] = biological target: T6, monkey α4β7 integrin on monkey PBMCs; assay: receptor occupancy: competition with fluorescently labeled antibody, flow cytometry; CD20+ B cells, monkey PBMCs; range, n = 3 donors
Procedure: as §1

[8] = biological target: T6, monkey α4β7 integrin on monkey PBMCs; assay: receptor occupancy: competition with fluorescently labeled antibody, flow cytometry; CD4+ Th cells, monkey PBMCs; range, n = 3 donors
Procedure: as §1

[9] = biological target: T6, monkey α4β7 integrin on monkey PBMCs; assay: receptor occupancy: competition with fluorescently labeled antibody, flow cytometry; CD45RO+ memory T cells, monkey PBMCs; n = 1 donor
Procedure: as §1

[10] = biological target: α4β1 integrin on cells (α4β1-positive Ramos cells; HuT-78 cells) (UniProt P13612 34-1032; P05556 21-798, limits assumed); assay: cell-based or functional assay

Kd [1]: 2.72 nM
Kd [2]: 4.81 nM
Kd [3]: 6.26 nM
binding result [4]: no binding
binding result [5]: no binding
IC50 [6]: 0.5 nM
IC50 [7]: 0.46 nM and 0.5 nM
IC50 [8]: 0.49 nM and 0.54 nM
IC50 [9]: 0.53 nM
B1: α4β7 binding antibody Ab001 (antibody, human IgG1, kappa)
heavy: QVQLVQSGAEVKKPGASVKVSCKGSGYTFTSYWMHWVRQAPGQRLEWIGEIDPSESNTNYNQKFKGRVTLTVDISASTAYMELSSLRSEDTAVYYCARGGYDGWDYAIDYWGQGTLVTVSSASTKGPSVFPLAPSSKSTSGGTAALGCLVKDYFPEPVTVSWNSGALTSGVHTFPAVLQSSGLYSLSSVVTVPSSSLGTQTYICNVNHKPSNTKVDKKVEPKSCDKTHTCPPCPAPELAGAPSVFLFPPKPKDTLYITREPEVTCVVVDVSHEDPEVKFNWYVDGVEVHNAKTKPREEQYNSTYRVVSVLTVLHQDWLNGKEYKCKVSNKALPAPIEKTISKAKGQPREPQVYTLPPSRDELTKNQVSLTCLVKGFYPSDIAVEWESNGQPENNYKTTPPVLDSDGSFFLYSKLTVDKSRWQQGNVFSCSVMHEALHNHYTQKSLSLSPG
light: DVVMTQSPLSLPVTPGEPASISCRSSQSLAKSYGNTYLSWYLQKPGQSPQLLIYGISNRFSGVPDRFSGSGSGTDFTLKISRVEAEDVGVYYCLQGTHQPYTFGQGTKVEIKRTVAAPSVFIFPPSDEQLKSGTASVVCLLNNFYPREAKVQWKVDNALQSGNSQESVTEQDSKDSTYSLSSTLTLSKADYEKHKVYACEVTHQGLSSPVTKSFNRGEC
notes: also called long acting α4β7 targeting molecule; Ab001-A647

Kd [1]: 1.2 nM
Kd [2]: 1.77 nM
Kd [3]: 5.34 nM
binding result [4]: no binding
binding result [5]: no binding
IC50 [6]: 0.56 nM
IC50 [7]: 0.42 nM and 0.66 nM
IC50 [8]: 0.48 nM and 0.6 nM
IC50 [9]: 0.58 nM
B2: comparator antibody (antibody, human IgG1, kappa)
heavy: not shown
light: B1 light

VCAM-1 Inhibition IC50 (adhesion of HuT-78 cells to coated recombinant VCAM-1) [10]: 0.23 nM
B3: Natalizumab (antibody, V domains shown)
VH: QVQLVQSGAEVKKPGASVKVSCKASGFNIKDTYIHWVRQAPGQRLEWMGRIDPANGYTKYDPKFQGRVTITADTSASTAYMELSSLRSEDTAVYYCAREGYYGNYGVYAMDYWGQGTLVTVSS
VL: DIQMTQSPSSLSASVGDRVTITCKTSQDINKYMAWYQQTPGKAPRLLIHYTSALQPGIPSRFSGSGSGRDYTFTISSLQPEDIATYYCLQYDNLWTFGQGTKVEIK
